{"source": "paper PMC2953525", "about": "“Subtle Alterations in PCNA-Partner Interactions Severely Impair DNA Replication and Repair” (PLoS Biology, 2010)", "molecules": {"B1": {"name": "pol30-79: previously studied PCNA mutant with decreased partner binding, IDCL sequence DIDADFAKAEEL (protein)", "chain": "MLEAKFEEASLFKRIIDGFKDCVQLVNFQCKEDGIIAQAVDDSRVLLVSLEIGVEAFQEYRCDHPVTLGMDLTSLSKILRCGNNTDTLTLIADNTPDSIILLFEDTKKDRIAEYSLKLMDIDADFAKAEELQYDSTLSLPSSEFSKIVRDLSQLSDSINIMITKETIKFVADGDIGSGSVIIKPFVDMEHPETSIKLEMDQPVDLTFGAKYLLDIIKGSSLSDRVGIRLSSEAPALFQFDLKSGFLQFFLAPKFNDEE", "modifications": "left off: Gal4 activation domain, end not stated, kept"}, "B2": {"name": "pol30-Rad27E6: PCNA mutant evolved for Rad27, IDCL sequence DGDYDILKIREL (protein)", "chain": "B1 chain with I121G, A123Y, F125I, A126L, A128I, E129R", "modifications": "left off: Gal4 activation domain, end not stated, kept"}, "B3": {"name": "pol30-Rad30E2: PCNA mutant evolved for Rad30, IDCL sequence DDDWDFLKILEL (protein)", "chain": "B1 chain with I121D, A123W, A126L, A128I, E129L", "modifications": "left off: Gal4 activation domain, end not stated, kept"}}, "key": {"[1]": {"tested_on": "mutated Rad30 PIP peptide", "experiment": "Yeast surface display of PCNA, PIP peptide binding by flow cytometry", "conditions": "peptide with the two conserved phenylalanines mutated to alanine", "method": "(§1) Briefly, EBY100 transformed with plasmid pCTCON-PCNA were grown in SDCAA media to logarithmic phase and 2×10^6 of cells were washed, resuspended in SGCAA induction media, and grown at 20°C with shaking for an additional 18 h. Induced cells (1×10^6) were collected by centrifugation, washed with PBSF (PBS+ 1 g/L BSA), and incubated for 1 h at 25°C with mouse α-Myc antibodies (Santa Cruz Biotechnology, 1 µl/50 µl PBSF) and 100–400 µM of biotinylated PIP peptide (Peptron, see Figure S1 for peptide sequences). […] The labeled cells were washed, resuspended with PBSF, and analyzed by flow cytometry (FACS Calibur, BD).\n(§2) Supplementary file pbio.1000507.s003.pdf: Figure S3 Yeast surface display of PCNA. […] Expression is detected through fluorescent antibody binding to the c-Myc epitope tag (light blue) while binding of the biotinylated PIP peptide (orange) is detected using fluorescently-labeled streptavidin (green). […] The specificity of PCNA binding for PIP peptides was detected following incubation with biotinylated PIP peptide derived from Rad30 (B and D) and mutated Rad30 in which the two conserved phenylalanine residues of the PIP peptide are mutated to alanine (C), followed by incubation with allophycocyanin (APC)-labeled streptavidin (y-axis). […]"}, "Rad30 PIP peptide": {"tested_on": "Rad30 PIP peptide", "experiment": "Yeast surface display of PCNA, PIP peptide binding by flow cytometry", "conditions": "biotinylated peptide, APC-streptavidin, compared with WT PCNA / Rad30 PIP peptide", "method": "as §1, §2"}, "PCNA-Rad27 complex": {"tested_on": "PCNA-Rad27 complex", "experiment": "ELISA for PCNA-partner complexes extracted from yeast cells", "format": "binding", "conditions": "ELISA of yeast extracts, GFP signal normalized to immobilized PCNA signal; averages of at least 5 independent repeats", "source_text": "(§3) To examine whether increased PCNA-partner interaction affinities result in increased PCNA-partner complex formation in vivo in pol30 mutant strains, we analyzed the levels of these complexes extracted from yeast cells. We used strains expressing the pol30 mutants as a sole source of PCNA in the cell under the control of the native POL30 promoter (see below). We immobilized PCNA from the crude yeast extracts onto ELISA plates and analyzed the amount of bound partner, relative to the amount of total PCNA immobilized on the plate (Figure 4).\n(§4) Figure 4 Increased levels of in vivo PCNA-partner complex formation in the pol30-Rad30E2 or the pol30-Rad27E6 mutant strains, relative to the POL30 strain. (A). ELISA experimental set-up for the detection of PCNA-partner complexes extracted directly from WT and mutant PCNA strains. The assay is based on the immobilization of PCNA-partner complex using anti-PCNA antibody-coated ELISA plates. Detection of complex levels is performed using antibodies against the GFP fused to the C-terminal of the PCNA partner. […]\n(§5) Yeast cell extracts were generated from 0.5 L of logarithmic cultures using conventional methods. […] Following centrifugation, cell extracts were collected and protein concentration was determined by the BCA method. […] PCNA-partner complex levels were calculated as the ratio of the GFP signal to the PCNA signal detected for the same cell extract. […]"}, "PCNA-Rad30 complex": {"tested_on": "PCNA-Rad30 complex", "experiment": "ELISA for PCNA-partner complexes extracted from yeast cells", "format": "binding", "conditions": "ELISA of yeast extracts, GFP signal normalized to immobilized PCNA signal; averages of at least 5 independent repeats", "source_text": "as §3, §4, §5"}}, "note": "Substitutions are numbered along the chain they refer to.", "data": [{"molecule": "POL30: wild-type yeast PCNA (POL30), IDCL sequence DIDADFLKIEEL", "values": [{"measurement": "binding to a mutated Rad30 PIP peptide (yeast surface display)", "setting": "[1]", "result": "dramatic reduction in binding affinity"}]}, {"molecule": "B1", "values": [{"measurement": "binding to the Rad30 PIP peptide (yeast surface display)", "setting": "Rad30 PIP peptide", "result": "dramatic reduction in binding affinity"}]}, {"molecule": "B2", "values": [{"measurement": "increase in PCNA-Rad27 complex formation relative to the POL30 WT strain", "setting": "PCNA-Rad27 complex", "result": 17, "unit": "%"}]}, {"molecule": "B3", "values": [{"measurement": "increase in PCNA-Rad30 complex formation relative to the POL30 WT strain", "setting": "PCNA-Rad30 complex", "result": 70, "unit": "%"}]}]}
